US20240197879A1 (Memorial Sloan Kettering, published 2024)

B1: H195 (lintuzumab) (antibody, part only; not given: constant regions, human IgG1, V domains shown, not shown: another chain or arm of the molecule)
VH: QVQLVQSGAEVKKPGSSVKVSCKASGYTFTDYNMHWVRQAPGQGLEWIGYIYPYNGGTGYNQKFKSKATITADESTNTAYMELSSLRSEDTAVYYCARGRPAMDYWGQGTLVTVSS
VL: DIQMTQSPSSLSASVGDRVTITCRASESVDNYGISFMNWFQQKPGKAPKLLIYAASNQGSGVPSRFSGSGSGTDFTLTISSLQPDDFATYYCQQSKEVPWTFGQGTKVEIK
B2: 3P14 (antibody, V domains shown)
VH: EVQLLESGGGLVQPGGSLRLSCAASGFTFSTYAMSWVRQAPGKGLEWVSAISGRGGSTYYTDSVKGRFTISRDNSKNTVSLQMNSLRAEDTAVYYCAGRGDYYYYYGMDVWGQGTTVTVSA
VL: DIVMTQSPLSSPVTLGQPASFSCRSSQSLVYSDGNTYLSWLQQRPGQPPRLLIYKISNRFSGVPDRFSGSGAGTDFTLKISRVEAEDVGVYYCMQSTQFPHTFGQGTKLEIK
notes: Hybridoma-derived mAb from AlivaMab mice; also called TDI-Y-006
B3: 4B2A (antibody, V domains shown)
VH: EVHLLESGGGLVQPGGSLRLSCAASGFIFSSNAMSWVRQAPGKGLEWVSAISGYGGNTYYADSVKGRFTISRDNSKNTLYLQMNSLRAEDTAVYYCAKWGTYIVGATGDYWGQGTLVTVSS
VL: QSALTQPPSASGSPGQSVTISCTGTSNDVGGYNYVSWYQQHPGKAPKLLIYEVSKRPSGVPDRFSGSQSGNTASLTVSGLQAEDEADYYCSSYAGSNNWVFGGGTKLTVL
notes: also called TDI-Y-007

Assays:
[1] = biological target: human CD33 on cells (3T3 cells over-expressing CD33; U937, OCi-AML3, HL60, Set2 AML cells with endogenous CD33) (human) (UniProt P20138); test: flow cytometry on 3T3 cells over-expressing CD33 (3T3-CD33), Alexa Fluor 647 anti-human F(ab')2 detection, non-linear regression
[2] = biological target: human CD33 on cells (3T3 cells over-expressing CD33; U937, OCi-AML3, HL60, Set2 AML cells with endogenous CD33) (human) (UniProt P20138); test: flow cytometry on U937 AML cells with endogenous CD33 (U937-CD33), Alexa Fluor 647 anti-human F(ab')2 detection, non-linear regression
[3] = biological target: His tag recombinant human full-length CD33 (human) (UniProt P20138); test: BLI epitope binning: human CD33-His on anti-penta-His biosensor, reference biosensor (buffer), no saturating mAb
[4] = biological target: His tag recombinant human full-length CD33 (human) (UniProt P20138); test: BLI epitope binning: human CD33-His on anti-penta-His biosensor, pre-saturated with 4B2A
[5] = biological target: His tag recombinant human full-length CD33 (human) (UniProt P20138); test: BLI epitope binning: human CD33-His on anti-penta-His biosensor, pre-saturated with 3P14
[6] = biological target: His tag recombinant human full-length CD33 (human) (UniProt P20138); test: BLI (Octet Red96e): antibody captured on anti-huFc biosensor, huCD33-His as analyte, 1:1 Langmuir fit
[7] = biological target: His tag recombinant human full-length CD33 (human) (UniProt P20138); test: BLI epitope binning: human CD33-His on anti-penta-His biosensor, pre-saturated with H195 (self-competition)
[8] = biological target: T1, His tag recombinant human full-length CD33 (human, UniProt P20138 18-259); test: BLI (Octet Red96e): antibody captured on anti-huFc biosensor, huCD33-His as analyte, 1:1 Langmuir fit
T1 construct: Commercial recombinant protein (R&D Systems / Acro Biosystems); also called huCD33-His; human CD33-His; not shown: 6xHis tag
Method: Lead and reference antibodies were produced recombinantly with a human IgG1 constant region. Selectivity was tested using His tag recombinant human full-length CD33 or CD33-IgC, mouse full-length CD33, and cynomolgus full-length CD33 proteins. Recombinant proteins at 5 μg/mL were captured by pre-blocked Ni-NTA plates. Candidate antibodies were added at 10 μg/mL in triplicate and detected using horseradish peroxidase (HRP)-conjugated anti-human Fc antibody. To assess the binding to cell-surface-bound CD33, 3T3 cells overexpressing CD33, as well as the U937 AML cell line, were used. U937 CD33-knockout (CD33KO) or NALM6 cells were included as negative controls. NALM6, U937 CD33⁺, and CD33KO cells were blocked with human IgG Fc for 20 minutes on ice. The recombinant antibodies were then serially diluted starting at 100 μg/mL concentration and added for 30 minutes on ice. Alexa Fluor 647-conjugated goat anti-human F(ab′)₂ was added to cells for 30 minutes on ice, washed and analyzed by flow cytometry, and normalized to secondary-only staining (MFI ratio). EC₅₀ values were determined by non-linear regression. The binding affinity and epitope binning to human CD33 protein was measured by biolayer interferometry (BLI) using an Octet Red96e. All experiments were carried out using kinetic buffer (PBS pH 7.4, 0.01% BSA, 0.002% Tween-20). […]

His tag recombinant human full-length CD33 (human), sequence (P20138 18-259): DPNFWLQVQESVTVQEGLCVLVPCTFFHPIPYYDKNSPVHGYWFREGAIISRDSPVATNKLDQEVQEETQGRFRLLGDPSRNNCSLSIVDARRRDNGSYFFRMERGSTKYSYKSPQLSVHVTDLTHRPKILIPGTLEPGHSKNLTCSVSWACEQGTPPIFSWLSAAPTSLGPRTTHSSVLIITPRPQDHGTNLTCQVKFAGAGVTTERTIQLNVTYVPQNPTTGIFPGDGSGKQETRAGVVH
T1 sequence (P20138 18-259): as above
human CD33 on cells (3T3 cells over-expressing CD33; U937, OCi-AML3, HL60, Set2 AML cells with endogenous CD33) (human), sequence (P20138 18-364 limits assumed): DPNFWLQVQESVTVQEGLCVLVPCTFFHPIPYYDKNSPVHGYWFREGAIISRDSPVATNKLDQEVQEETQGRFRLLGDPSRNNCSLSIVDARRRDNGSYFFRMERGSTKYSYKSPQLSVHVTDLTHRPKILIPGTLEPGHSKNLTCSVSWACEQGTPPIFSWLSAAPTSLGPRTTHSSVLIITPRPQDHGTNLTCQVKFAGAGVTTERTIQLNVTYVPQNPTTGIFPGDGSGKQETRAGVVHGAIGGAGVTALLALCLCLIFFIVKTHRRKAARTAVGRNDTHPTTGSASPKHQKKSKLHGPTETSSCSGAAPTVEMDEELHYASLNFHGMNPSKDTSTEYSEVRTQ

Binder | EC50 [1] [nM] | EC50 [2] [nM] | binding of competing mAb, % of reference biosensor [3] [%] | binding of competing mAb, % of reference biosensor [4] [%] | binding of competing mAb, % of reference biosensor [5] [%] | Kd [6] [nM] | kon [6] [M⁻¹ s⁻¹] | binding of competing mAb, % of reference biosensor [7] [%] | Kd [8] [nM]
B1 | 4.8 | 0.4 | 100 | 100 | 78 | 1.22 | 358000 | 5 | –
B2 | – | – | – | – | – | – | – | – | 12.1
B3 | – | – | – | – | – | – | – | – | 12.9
